The results in this text go back to US20250195685A1 (CAPSTAN THERAPEUTICS, published 2025).

Assay [1] addresses T1, cynomolgus macaque CD8 on expanded primary T cells (cynomolgus macaque).
T1 construct: also called CD4- CD8+ cynomolgus macaque T cells
Description: flow cytometry, Cyno Expanded T cells Donor 10, gated on live CD8 T cells (via CD3+CD4-). As to the method: (§1) To obtain the results shown in FIG. 8A and FIG. 8B, 5×10⁴ expanded primary T cells (human, cynomolgus macaque or rhesus monkey) were thawed and transferred to a V bottom 96-well culture plate (Corning). Cells were washed twice with Cell Staining buffer (#420201, Biolegend). Each anti-CD8α antibody was diluted in four-fold antibody titration series from 60 μg/mL to 0.057 ng/mL into Cell Staining buffer. Cells were stained with each diluted antibody solution for 30 minutes on ice. Cells were then washed three times with Cell Staining buffer and primary antibody binding was detected by staining with anti-human Fc BV421 conjugate antibody (#410704, Biolegend) at 1:200 dilution for 30 minutes on ice. […] Flow cytometry data was analyzed by Flowjo 10 (Becton, Dickinson & Company) to measure the geometric median fluorescence intensity (gMFI) of the on-cell binding from each antibody. The gMFI values were normalized with the gMFI measured in the sample stained with only the secondary detection antibody and plotted against the concentration of the added antibodies. The binding curves were constructed using Graphpad Prism software, and EC₅₀ values were determined by non-linear curve fitting.

For assay [2], the target named is T2, human CD8 on cells (CD8-overexpressing HEK293T cells, SupT1, HPB-ALL, human T cells, transfected HEK293 of … (human, UniProt P01732 22-235)).
T2 construct: whole, on cells; also called cell surface CD8
T2 sequence (P01732 22-235): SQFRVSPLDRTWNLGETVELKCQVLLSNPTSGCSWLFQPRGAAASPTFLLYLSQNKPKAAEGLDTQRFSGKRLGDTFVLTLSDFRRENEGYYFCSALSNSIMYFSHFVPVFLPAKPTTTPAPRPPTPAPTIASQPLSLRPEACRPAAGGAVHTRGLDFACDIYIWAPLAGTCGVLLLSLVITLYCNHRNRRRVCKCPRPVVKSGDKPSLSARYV
Description: flow cytometry on CD8-overexpressing HEK293T cells, non-linear fit of normalized gMFI. Background: A flow cytometer gives signals particle by particle.

In assay [3] the target is T1, cynomolgus macaque CD8 on expanded …. Description: flow cytometry, Cyno Expanded T cells Donor 9, gated on CD4- T cells, anti-human Fc BV421. On the procedure: Binding was measured by fluorescence from the BV421 fluorophore-conjugated anti-human Fc secondary antibody that recognize the binders. The gMFI was normalized to the gMFI of the secondary antibody in the absence of the anti-CD8α binders.
as §1, with “Cells were stained with each diluted antibody solution for 30 minutes on ice.” left out

In assay [4] the target is T2, human CD8 on cells (CD8-overexpressing …). The assay is described as follows: flow cytometry, Human Expanded T cells Donor 6, gated on live CD8 T cells (via CD3+CD4-). On the procedure: as §1
The target is the same in assay [5]. Description: flow cytometry, Human Expanded T cells Donor 5, gated on live CD8 T cells (via CD3+CD4-). On the procedure:
as §1

Assay [6] addresses T3, human CD8αα homodimer, recombinant protein (Acro Biosystems) (human, UniProt P01732 22-182).
T3 construct: also called CD8αα antigen; biotinylated CD8α recombinant protein (CDA-H82E3)
Description: BLI steady state analysis, whole antibody, sample stressed at pH 8.5, 40 °C, 7 days. On the procedure: (§2) To assess affinity of whole antibodies, steady state analysis was used as the bivalent nature of both whole antibody and CD8α complicates kinetic analysis. 50 nM CD8α-His (that is, CD8α with a C-terminal oligohistidine tag; Acro) was immobilized on Ni-NTA sensor probes. Binding was analyzed with a three-fold antibody dilutions series: 60 nM, 20 nM, 6.67 nM, 2.22 nM, 0.74 nM, and 0.25 nM. The antigen-loaded sensors were incubated in the diluted solutions to capture the whole IgG antibody for 300 s to record the association phase. Sensors were incubated in the kinetic buffer for 900 s to record the dissociation phase. The spin speed was 1000 rpm for all steps except the antigen loading step which was 400 rpm to control density of the antigen. The temperature of the performed assays was at 30° C. during the association and dissociation phases. The sensor data were baseline subtracted and further analyzed in GatorOne software (version 2.10) to determine the equilibrium dissociation constants (KD) of the antibodies by fitting the signals of the steady states to the 1:1 binding model.

Assay [7] concerns the target T3, human CD8αα homodimer, recombinant …. The assay is described as follows: BLI steady state analysis, whole antibody, sample kept at pH 7.2, 4C (unstressed). As to the method:
as §2

Assay [8] shares this target. Description: BLI steady state analysis, whole antibody, sample stressed at pH 8.5, 40 °C, 3 days. On the procedure: as §2
Assay [9] has the same target. The assay is described as follows: BLI, whole antibody, steady state dissociation constant (column head x10^-9M). As to the method: as §2

T3 sequence (P01732 22-182 limits assumed): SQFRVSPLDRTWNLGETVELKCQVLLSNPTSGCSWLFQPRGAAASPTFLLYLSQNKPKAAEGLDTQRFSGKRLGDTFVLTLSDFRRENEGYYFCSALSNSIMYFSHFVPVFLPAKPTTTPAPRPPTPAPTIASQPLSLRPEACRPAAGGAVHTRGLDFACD

B1: CBD1017ch whole antibody (chimeric CT8 antibody) (antibody, V domains shown)
VH: EVQLQQSGPELVKPGASVKISCKASRYTFTDYNLHWVKLSHEKSLEWIGFIYPYNGGTGYNQKFKNKAKLTVDYSSSTAYMELRSLTSVDAAVYYCARDHRYNEGVSFDYWGQGTTLTVSS
VL: NIVLTQSPASLAVSLGQRATISCRASESVDGFGNSFMNWYQQKPGQSPKLLIYLASNLESGVPARFSGSGSRTDFTLTIDPVEADDAATYYCQQNNEDPYTFGGGTKLEIK
notes: Chimeric antibody comprising the variable regions of the donor antibody CT8; detected with anti-human Fc
In general, EC50 refers to the midpoint of the concentration-response curve. A word on the EC50 (read off the curve): it is the concentration needed to bring the measured effect to its halfway point. The low end stands for greater potency, the high end for weaker potency. What is called Kd is the constant that tells how readily two partners part at equilibrium. On to B1, for which the EC50 in assay [1] turned out to be 0.39 nM; in [2], 2.75 nM; in assay [4], 0.356 nM; in assay [5], 0.349 nM. The “EC50 (read off the curve)” value in assay [3] is approximately 0.06 µg/mL. The Kd in assay [6] is 0.53 nM; in assay [7] it was 0.36 nM.

B2: CBD1033 whole antibody, human IgG1 with Fc-silencing mutations L234A, L235A and P329A (CBD1033-hIgG1-LALAPA) (antibody, V domains shown)
VH: QVQLVQSGAEVKKPGASVKVSCKASRYTFTDYNLHWVRQAPGQGLEWMGFIYPYNGGTGYAQKFQGRVTMTVDTSTSTAYMELSSLRSEDTAVYYCARDHRYNEGVSFDYWGQGTTVTVSS
VL: DIQLTQSPSSLSASVGDRATITCRASESVDGFGNSFMNWYQQKPGKAPKLLIYLASNLESGVPSRFSGSGSGTDFTLTISSVQPEDFATYYCQQNNEDPYTFGQGTKLEIKR
notes: On tLNPs the antibody was SATA-modified or AJICAP-thiolated (CBD1033.29) and conjugated to the LNP; also called CBD1033.3; CBD1033 IgG1
Take B2: the EC50 was determined as 1.16 nM in assay [1], 2.78 nM in assay [2], 0.767 nM in assay [4] and 0.644 nM in [5]. Also, the Kd in assay [8] is 1.71 nM; in assay [9], 1.43 nM; in assay [6], 2.12 nM; in assay [7] it was 1.45 nM. Further, the “EC50 (read off the curve)” value in assay [3] is approximately 0.2 µg/mL.
